These results are taken from publication PMC2696799 (European journal of immunology, 2009).

Series [1] deals with CD200R ECD (Mus musculus) (UniProt Q9ES57). Particulars: cited from earlier work.
Series [2] deals with CD200RLa ECD (Mus musculus) (UniProt Q6XJV4). The settings on record: cited from earlier work.
Series [3] addresses CD47 ECD (Homo sapiens) (UniProt Q08722). Particulars: cited from earlier work.
Series [4] deals with CD58 ECD (Homo sapiens) (UniProt P19256). Particulars: cited from earlier work.
Series [5] has as its target CD200R ECD (Homo sapiens) (UniProt Q8TD46). The settings on record: cited from earlier work.
For series [6], the target named is T1, Acid-soluble human collagen type I (from human placenta) (human, UniProt P02452 162-1218; P08123 80-1119). Description: SPR.
Series [7] deals with (GPO)10 triple-helical peptide, GCO(GPO)10GCOG-NH2. Description: SPR. (In SPR one partner is held on a chip, and binding of the other changes the refractive index at the surface.)
The target of series [8] is T1, Acid-soluble human collagen type I …. Briefly: SPR. This is another data set of the same source.
Series [9] concerns the molecule itself. Description: SPR.
Series [10] deals with T2, mCD200R, immobilised (mouse, UniProt Q9ES57 26-238).
T2 sequence (looked up): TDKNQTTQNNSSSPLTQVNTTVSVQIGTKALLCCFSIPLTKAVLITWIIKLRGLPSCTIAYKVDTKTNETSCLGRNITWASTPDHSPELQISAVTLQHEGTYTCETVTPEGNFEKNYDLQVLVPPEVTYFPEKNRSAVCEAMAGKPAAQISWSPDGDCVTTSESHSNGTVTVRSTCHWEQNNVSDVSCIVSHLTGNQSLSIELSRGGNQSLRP
Description: SPR.

Series [11] addresses T3, mCD200RLa/rCD4d3+4, immobilised (mouse, UniProt Q6XJV4 26-241, biotin).
T3 sequence (looked up): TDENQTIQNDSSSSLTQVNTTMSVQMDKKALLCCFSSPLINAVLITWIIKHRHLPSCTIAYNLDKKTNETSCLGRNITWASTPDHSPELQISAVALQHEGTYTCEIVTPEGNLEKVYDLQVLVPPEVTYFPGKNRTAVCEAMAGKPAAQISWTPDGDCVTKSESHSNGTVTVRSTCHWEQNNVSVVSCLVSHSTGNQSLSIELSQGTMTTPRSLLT
Description: SPR.

T1 sequence (P02452 162-1218, chain 1 of 2): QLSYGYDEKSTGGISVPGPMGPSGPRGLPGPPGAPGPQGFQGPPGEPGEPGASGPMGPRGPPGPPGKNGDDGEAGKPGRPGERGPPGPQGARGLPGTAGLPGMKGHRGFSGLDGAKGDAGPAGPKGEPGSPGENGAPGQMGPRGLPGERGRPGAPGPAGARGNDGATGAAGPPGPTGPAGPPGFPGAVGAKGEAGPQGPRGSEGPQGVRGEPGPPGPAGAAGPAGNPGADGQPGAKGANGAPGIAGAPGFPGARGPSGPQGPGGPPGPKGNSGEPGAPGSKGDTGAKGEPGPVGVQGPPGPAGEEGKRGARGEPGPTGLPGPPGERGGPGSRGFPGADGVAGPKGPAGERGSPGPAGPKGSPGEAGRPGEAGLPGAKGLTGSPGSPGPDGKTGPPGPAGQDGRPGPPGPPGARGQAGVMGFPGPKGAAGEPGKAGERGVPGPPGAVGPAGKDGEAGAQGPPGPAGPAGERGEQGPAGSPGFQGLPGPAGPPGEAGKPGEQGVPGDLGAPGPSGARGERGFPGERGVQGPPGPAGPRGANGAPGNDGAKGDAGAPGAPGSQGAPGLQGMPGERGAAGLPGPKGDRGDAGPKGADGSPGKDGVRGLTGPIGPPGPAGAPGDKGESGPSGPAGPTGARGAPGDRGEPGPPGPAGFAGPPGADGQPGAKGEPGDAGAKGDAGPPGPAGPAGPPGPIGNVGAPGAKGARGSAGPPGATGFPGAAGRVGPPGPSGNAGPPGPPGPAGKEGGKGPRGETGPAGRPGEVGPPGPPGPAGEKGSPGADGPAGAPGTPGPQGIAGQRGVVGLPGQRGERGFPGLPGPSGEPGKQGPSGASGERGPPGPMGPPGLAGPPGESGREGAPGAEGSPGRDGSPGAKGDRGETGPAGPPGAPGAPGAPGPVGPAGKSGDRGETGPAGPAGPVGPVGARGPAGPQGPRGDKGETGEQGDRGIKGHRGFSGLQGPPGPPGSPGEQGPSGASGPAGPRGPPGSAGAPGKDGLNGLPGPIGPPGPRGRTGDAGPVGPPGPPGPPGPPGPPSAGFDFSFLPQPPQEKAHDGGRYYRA
T1 sequence (P08123 80-1119, chain 2 of 2): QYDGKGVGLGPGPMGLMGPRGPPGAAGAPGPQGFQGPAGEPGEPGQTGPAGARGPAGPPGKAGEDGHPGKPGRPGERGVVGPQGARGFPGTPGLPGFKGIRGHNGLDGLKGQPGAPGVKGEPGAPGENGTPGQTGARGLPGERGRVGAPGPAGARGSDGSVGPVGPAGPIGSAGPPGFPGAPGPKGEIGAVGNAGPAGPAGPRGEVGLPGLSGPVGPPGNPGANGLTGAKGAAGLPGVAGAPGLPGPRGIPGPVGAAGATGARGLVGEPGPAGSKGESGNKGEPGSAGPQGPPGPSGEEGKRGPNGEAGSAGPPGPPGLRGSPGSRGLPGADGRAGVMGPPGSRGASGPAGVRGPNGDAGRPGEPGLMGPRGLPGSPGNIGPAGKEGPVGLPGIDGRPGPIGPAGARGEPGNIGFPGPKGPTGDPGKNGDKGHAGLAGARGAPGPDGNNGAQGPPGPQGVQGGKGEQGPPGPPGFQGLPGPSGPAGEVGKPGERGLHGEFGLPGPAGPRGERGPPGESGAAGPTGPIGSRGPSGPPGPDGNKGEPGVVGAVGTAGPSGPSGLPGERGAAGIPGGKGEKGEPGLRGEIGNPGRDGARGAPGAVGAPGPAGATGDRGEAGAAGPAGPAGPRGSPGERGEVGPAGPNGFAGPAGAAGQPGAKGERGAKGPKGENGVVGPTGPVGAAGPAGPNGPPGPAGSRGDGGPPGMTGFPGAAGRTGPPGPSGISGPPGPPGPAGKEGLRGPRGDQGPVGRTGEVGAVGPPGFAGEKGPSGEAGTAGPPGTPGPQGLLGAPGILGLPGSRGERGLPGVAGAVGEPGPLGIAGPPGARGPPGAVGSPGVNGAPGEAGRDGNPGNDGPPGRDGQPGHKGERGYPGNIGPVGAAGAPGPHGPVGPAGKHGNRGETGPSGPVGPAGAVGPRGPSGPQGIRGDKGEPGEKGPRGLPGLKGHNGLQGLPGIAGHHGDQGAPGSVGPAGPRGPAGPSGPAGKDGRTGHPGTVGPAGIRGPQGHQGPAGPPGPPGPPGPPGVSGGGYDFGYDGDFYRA
CD47 ECD (Homo sapiens), sequence (Q08722 19-323): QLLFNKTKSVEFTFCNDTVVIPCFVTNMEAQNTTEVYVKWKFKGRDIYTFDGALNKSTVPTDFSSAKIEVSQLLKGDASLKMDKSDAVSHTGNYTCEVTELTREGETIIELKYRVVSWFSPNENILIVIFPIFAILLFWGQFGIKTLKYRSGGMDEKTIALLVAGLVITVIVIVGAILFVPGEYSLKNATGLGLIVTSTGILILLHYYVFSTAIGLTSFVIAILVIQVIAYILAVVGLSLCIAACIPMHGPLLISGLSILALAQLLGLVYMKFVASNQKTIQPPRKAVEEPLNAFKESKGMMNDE
CD58 ECD (Homo sapiens), sequence (P19256 29-215): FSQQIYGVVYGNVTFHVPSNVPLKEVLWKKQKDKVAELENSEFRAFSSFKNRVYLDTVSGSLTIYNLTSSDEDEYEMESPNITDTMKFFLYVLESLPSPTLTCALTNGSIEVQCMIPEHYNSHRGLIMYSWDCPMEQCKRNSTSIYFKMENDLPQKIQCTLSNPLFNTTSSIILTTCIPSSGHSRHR
CD200R ECD (Homo sapiens), sequence (Q8TD46 25-265): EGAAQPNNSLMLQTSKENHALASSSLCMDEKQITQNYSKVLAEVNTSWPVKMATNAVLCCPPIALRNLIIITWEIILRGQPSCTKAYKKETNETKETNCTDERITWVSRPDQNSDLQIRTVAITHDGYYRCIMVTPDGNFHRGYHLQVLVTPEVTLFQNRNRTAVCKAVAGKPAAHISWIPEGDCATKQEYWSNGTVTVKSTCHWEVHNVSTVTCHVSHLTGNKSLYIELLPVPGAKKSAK

Turning to CD200 ECD (from UniProt O54901), the figures for the Kd in series [1] and in series [2] were 4 µM and above 500 µM, respectively. In the case of SIRPα ECD (from UniProt P78324), in [3], the Kd (commonly the free concentration of one partner at which half of the binding sites on the other are occupied at equilibrium, for simple one-to-one binding) is 2 µM.

Consider CD2 ECD (from UniProt P06729), for which the Kd in series [4] is 10 µM. Regarding CD200 ECD (from UniProt P41217), in [5], the Kd is 2 µM.

B1: hLAIR-1/rCD4d3+4, biotinylated (on beads or on the chip) (domain or fragment, human, UniProt Q6GTX8 22-165, looked up)
chain: QEEDLPRPSISAEPGTVIPLGSHVTFVCRGPVGVQTFRLERDSRSTYNDTEDVSQASPSESEARFRIDSVREGNAGLYRCIYYKPPKWSEQSDYLELLVKESSGGPDSPDTEPGSSAGPTQRPSDNSHNEHAPASQGLKAEHLY
modifications: biotin (biotin ligase BirA) on the sequence near the C terminus
B1: the response in series [6] came to 2700 RU.

B2: mLilrb4/rCD4d3+4, soluble monomeric (domain or fragment, mouse, UniProt Q64281 24-238, looked up)
chain: GHLPKPIIWAEPGSVIAAYTSVITWCQGSWEAQYYHLYKEKSVNPWDTQVPLETRNKAKFNIPSMTTSYAGIYKCYYESAAGFSEHSDAMELVMTGAYENPSLSVYPSSNVTSGVSISFSCSSSIVFGRFILIQEGKHGLSWTLDSQHQANQPSYATFVLDAVTPNHNGTFRCYGYFRNEPQVWSKPSNSLDLMISETKDQSSTPTEDGLETYQK
For B2, the Kd in series [7] was 33 µM; in [8] it was 39 µM.

B3: mLilrb4/rCD4d3+4, biotinylated (on beads or on the chip) (domain or fragment, mouse, UniProt Q64281 24-238, looked up)
chain: B2 chain
modifications: biotin (biotin ligase BirA) on the sequence near the C terminus
As to B3, the response in series [9] turned out to be 1750 RU.

B4: mLAIR-1/rCD4d3+4, soluble monomeric (domain or fragment, mouse, UniProt Q8BG84 22-144, looked up)
chain: QEGSLPDITIFPNSSLMISQGTFVTVVCSYSDKHDLYNMVRLEKDGSTFMEKSTEPYKTEDEFEIGPVNETITGHYSCIYSKGITWSERSKTLELKVIKENVIQTPAPGPTSDTSWLKTYSIY
Take B4: the Kd in [7] was 10 µM; in series [8], 18 µM.

B5: mCD200/rCD4d3+4 coupled beads (domain or fragment, mouse, UniProt O54901 31-232, looked up)
chain: QVEVVTQDERKALHTTASLRCSLKTSQEPLIVTWQKKKAVSPENMVTYSKTHGVVIQPAYKDRINVTELGLWNSSITFWNTTLEDEGCYMCLFNTFGSQKVSGTACLTLYVQPIVHLHYNYFEDHLNITCSATARPAPAISWKGTGTGIENSTESHFHSNGTTSVTSILRVKDPKTQVGKEVICQVLYLGNVIDYKQSLDKG
modifications: biotin on the tag that can be biotinylated
Turning to B5, the response in series [10] and in [11] was above 3000 RU throughout.
